Measurements as given in US20210347873A1 (SHANGHAI PHARMAEXPLORER, published 2021).

T1: human APRIL protein (human, UniProt O75888 105-250, limits assumed)
T1 construct: Bought protein; also called recombinant APRIL protein
T1 sequence (looked up): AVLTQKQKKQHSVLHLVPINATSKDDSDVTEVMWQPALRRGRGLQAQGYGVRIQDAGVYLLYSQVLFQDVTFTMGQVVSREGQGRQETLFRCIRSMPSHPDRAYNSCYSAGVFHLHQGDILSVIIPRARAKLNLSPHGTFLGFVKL


The binders below were run against T1, human APRIL protein (assay: ELISA: APRIL coated at 1.0 µg/mL, antibody titrated, HRP secondary antibody).
Experimental: To test whether the BLyS antibody cross-reacted with human APRIL protein, APRIL protein (purchased from R & D Systems) was first diluted to a final concentration of 1.0 μg/mL with PBS, and then 50 μL of which per well was aliquoted into a 96-well ELISA plate, and the plate was subsequently sealed with plastic film and incubated at 4° C. overnight. On the next day the plate was rinsed four times with the plate washing buffer [PBS buffer containing 0.0500 (v/v) Tween20] and a blocking solution [PBS buffer containing 0.05 (v/v) Tween20 and 1 (w/w) BSA] was added, then the protein was blocked at 37° C. for 2 hours. The blocking solution was removed and 100 μL per well of the lead antibodies prepared in Embodiment 1 and 2 were added in. After incubation for 1 hour at 37° C., the plate was rinsed four times with the plate washing buffer [PBS buffer containing 0.05 (v/v) Tween20]. HRP-labeled (horseradish peroxidase) secondary antibody (purchased from Sigma) was added in and incubated at 37° C. for 1 hour. The plate was then rinsed four times with the plate washing buffer [PBS buffer containing 0.050 (v/v) Tween20]. 100 μL of TMB substrate was aliquoted into each well and after incubation at room temperature for 5 minutes, 100 μL of stop solution (1.0 N HCl) was aliquoted into each well. A₄₅₀ₙₘ values were read via an ELISA plate reader (SpectraMax M5e purchased from Molecular Devices) and the results were shown in FIGS. 6A-6B and Table 11. […] As used herein, the IgG control is human IgG and the data in the table is GD number at 450 nm.

| Binder | binding result |
| --- | --- |
| L9G7 (antibody, human IgG1, V domains shown) VH: QIQLVQSGAEVKKPGASVKVSCKASGYTFTSYGISWVRQAPGQGLEWMGWISAYNGNTNYAQKLQGRVTMTTDTSTSTAYMELRSLRSDDTAVYYCARTYYDILTGYYYYGMDVWGQGTTVTVSS VL: EIVLTQSPGTLSLSPGERATLSCRTSQSVDTYLAWYQQKPGQAPRLLIYDASNRATGIPARFSGSGSGTDFTLTISSLEPEDFAVYYCQQRSNWPLTFGGGTKVEIK | no binding (tested: 66.7 nM) |
| L1D12 (antibody, human IgG1, V domains shown, also called LID12) VH: QVQLVQSGGGLVQPGGSLRLSCAASGFTVSSNYMSWVRQAPGKGLEWVSVIYSGGSTYYADSVKGRFTISRDNSKNTLYLQMNSLRAEDTAVYYCARGFHDILTGYGMDVWGQGTTVTVSS VL: SSELTQDPAVSVALGQTVRITCQGDSLRNYYAGWYQQKPGQAPVLVIYGKNNRPSGIPDRFSGSSSGNTASLTITGTQAEDEADYYCSSRDNSGTHLVEFGGGTKLTVL | no binding (tested: 66.7 nM) |
| 111D10D6G3 (antibody, V domains shown, Mouse hybridoma antibody purified on Protein G) VH: QVQLQQPGAELVKPGASVKMSCKASGYTFTRHWITWVKQRPGQGLEWIGDIFPGSGSINYNEKFKSEATLTVEKSSSTAYMQLSSLTSEDSAVYYCARGDVDVWGTGTTVTVSS VL: DIQMTQSPSSLSASLGERVSLTCRASQEIRGYLSWLQQKPNGTIKRLIYAASTLDSGVPKRFSATRSGSDFSLTISSLESEDFADYYCLQYASYPFTFGSGTKLEIK | no binding (tested: 66.7 nM) |
| 97A3C2H4 (antibody, V domains shown, Mouse hybridoma antibody purified on Protein G) VH: EVKLVESGGGLVQPGGSLKLSCAASGFTFSTYTMSWVRQTPEKRLEWVAYISYGGGSTSYPDTVKGRFTISRDNAKNTLYLQMSSLKSEDTAIYYCTRHVTVVENSMDYWGQGTSVTVSS VL: DILLTQSPDILSVSPGERVSFSCRASQSIGTSIHWYQQRTNGSPRLLIKYVSESFSGTPSRFSGSGSGTAFTLTINSVESEDIADYYCQQTHSWPWTFGGGTKLEIK | no binding (tested: 66.7 nM) |

What follows are binders tested against T2, hBLyS-ECD (His-tagged extracellular domain of human BLyS protein, Ala134-Leu285) (human, UniProt Q9Y275 134-285) (assay: SPR (Biacore X100), antibody captured by anti-human Fc on CM5, hBLyS-ECD injected).
T2 construct: Expressed in HEK293, purified on Ni column; also called immunogen
Experimental: Affinity constants were determined using a Biacore X100 instrument (purchased from GE Healthcare). Detailed operations and methods referred to the instrument manuals and detailed methods provided by manufacturers, specifically: determining affinity constant using a CM5 chip (Sensor Chip CM5, purchased from GE Healthcare). […] Then 1 M ethanolamine was injected in chip to block the remaining activation sites. After the antibody to be tested (i.e., the human BLyS antibody prepared by Embodiment 2) was captured by chip, 7 different gradient of immunogen dilutions (i.e., hBLyS-ECD) prepared by Embodiment 1 were injected and the binding and dissociation of antigen with antibody was detected by a Biacore instrument. The dissociation constant and binding constant were then fitted by Biacore X100 Evaluation Software 2.0, while the affinity constant was the ratio of dissociation constant to binding constant.

| Binder | Kd | koff | kon |
| --- | --- | --- | --- |
| 2-1G11 (antibody, V domains shown, From a human naive scFv phage library; also called human BLyS antibody 2-1G11) VH: EVQLVESRGGVVQPGRSLRLSCAASGFTFSSYGMHWVRQAPGKGLEWVAVISYDGSNKYYADSVKGRFTISRDNSKNTLYLQMNSLRAEDAAVYYCARDRVDILTGYSIYGMDVWGQGTTVTVSS VL: EIVMTQSPATLSLSPGERATLSCRASQSVSSYLAWYQQKPGQAPRLLIYDASKRATGIPARFSGSGSGTDFTLTISSLEPEDFAVYYCQQRSNWPLTFGGGTKVEIK | 0.637 nM | 0.000946 s⁻¹ | 1.48e+06 M⁻¹ s⁻¹ |
| L9G7 (antibody, V domains shown, From a human naive scFv phage library; also called human BLyS antibody L9G7) VH: QIQLVQSGAEVKKPGASVKVSCKASGYTFTSYGISWVRQAPGQGLEWMGWISAYNGNTNYAQKLQGRVTMTTDTSTSTAYMELRSLRSDDTAVYYCARTYYDILTGYYYYGMDVWGQGTTVTVSS VL: EIVLTQSPGTLSLSPGERATLSCRTSQSVDTYLAWYQQKPGQAPRLLIYDASNRATGIPARFSGSGSGTDFTLTISSLEPEDFAVYYCQQRSNWPLTFGGGTKVEIK | 0.525 nM | 0.000244 s⁻¹ | 465000 M⁻¹ s⁻¹ |
| L1D12 (antibody, V domains shown, From a human naive scFv phage library; also called human BLyS antibody L1D12; LID12) VH: QVQLVQSGGGLVQPGGSLRLSCAASGFTVSSNYMSWVRQAPGKGLEWVSVIYSGGSTYYADSVKGRFTISRDNSKNTLYLQMNSLRAEDTAVYYCARGFHDILTGYGMDVWGQGTTVTVSS VL: SSELTQDPAVSVALGQTVRITCQGDSLRNYYAGWYQQKPGQAPVLVIYGKNNRPSGIPDRFSGSSSGNTASLTITGTQAEDEADYYCSSRDNSGTHLVEFGGGTKLTVL | 2.42 nM | 0.00136 s⁻¹ | 561000 M⁻¹ s⁻¹ |

The binders below were run against T3, biotinylated hBLyS-ECD (human, UniProt Q9Y275 134-285, biotinylated with Biotin-X-X-NHS (molar ratio 7:1); sites not stated) (assay: blocking ELISA: biotinylated hBLyS-ECD on coated BAFF R, antibody 20 nM).
T3 construct: also called biotinylated immunogen; BLyS protein
Experimental: BAFF R (purchased from R & D Systems) was aliquoted into 96-well ELISA plate at 50 ng per well, and the plate was sealed with plastic film and incubated overnight at 4° C. On the next day the plate was washed four times with the plate washing buffer [PBS buffer containing 0.05% (v/v) Tween20] and added with blocking solution [PBS buffer containing 0.05% (v/v) Tween20 and 1% (w/w) BSA], then blocked for 1 hour at room temperature. The blocking solution was removed and 50 μL per well of the lead antibodies prepared in Embodiment 1 and 2 were added followed by the addition of 50 μL per well of the biotinylated hBLyS-ECD prepared in Embodiment 2. After incubation for 1 hour at 37° C., the plate was washed four times with the plate washing buffer [PBS buffer containing 0.05% (v/v) Tween20]. 100 μL per well of HRP-labeled (horseradish peroxidase) avidin (purchased from Sigma) was added and incubated at 37° C. for 1 hour. The plate was then washed four times with the plate washing buffer [PBS buffer containing 0.05% (v/v) Tween20]. 100 μL of TMB substrate was aliquoted into each well and after incubation for 5 minutes at room temperature, then 100 μL of stop solution (1.0 N HCl) was aliquoted into each well. A₄₅₀ₙₘ values were read with an ELISA plate reader (SpectraMax 384plus, Molecular Device) and the results were shown in FIGS. 9A-9B and Table 15. It was shown in Table 15 that the binding of BLyS protein to its receptor BAFF R could be blocked by the BLyS antibody.

T3 sequence (Q9Y275 134-285): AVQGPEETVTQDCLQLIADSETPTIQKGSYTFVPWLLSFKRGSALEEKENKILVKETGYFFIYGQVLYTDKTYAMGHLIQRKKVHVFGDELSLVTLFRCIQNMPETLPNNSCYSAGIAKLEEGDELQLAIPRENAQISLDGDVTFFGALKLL

| Binder | OD450 nm |
| --- | --- |
| 8E7D9C7F5 (antibody, V domains shown, Mouse hybridoma monoclonal antibody purified on Protein G) VH: QVQLQQSGVELARPGASVKLSCKASGYTFTSYGISWVKQRTGQALEWIGEIYPRSGNTYYNEKFKGKATLTADKSSSTAYMELRSLTSEDSAVYFCARSGPITTLVATDYGMDYWGQGTSVTVSS VL: DIVLTQSPASLAVSLGQRATISCRASKSVSTSSYSYMHWYQQKPGQPPKLLIKFASNLESGVPARFSGSGSGTDFTLNIHPVEEEDAATYYCQHSREFPYTFGGGTKLEIK | 0.133 OD450 nm |
| 111D10D6G3 (antibody, V domains shown, Mouse hybridoma monoclonal antibody purified on Protein G) VH: QVQLQQPGAELVKPGASVKMSCKASGYTFTRHWITWVKQRPGQGLEWIGDIFPGSGSINYNEKFKSEATLTVEKSSSTAYMQLSSLTSEDSAVYYCARGDVDVWGTGTTVTVSS VL: DIQMTQSPSSLSASLGERVSLTCRASQEIRGYLSWLQQKPNGTIKRLIYAASTLDSGVPKRFSATRSGSDFSLTISSLESEDFADYYCLQYASYPFTFGSGTKLEIK | 0.616 OD450 nm |
| 97A3C2H4 (antibody, V domains shown, Mouse hybridoma monoclonal antibody purified on Protein G) VH: EVKLVESGGGLVQPGGSLKLSCAASGFTFSTYTMSWVRQTPEKRLEWVAYISYGGGSTSYPDTVKGRFTISRDNAKNTLYLQMSSLKSEDTAIYYCTRHVTVVENSMDYWGQGTSVTVSS VL: DILLTQSPDILSVSPGERVSFSCRASQSIGTSIHWYQQRTNGSPRLLIKYVSESFSGTPSRFSGSGSGTAFTLTINSVESEDIADYYCQQTHSWPWTFGGGTKLEIK | 0.125 OD450 nm |
